According to PMC3616968, “Post-Transcriptional Regulation of the Trypanosome Heat Shock Response by a Zinc Finger Protein”:

Target: T1, ZC3H11-119 (Trypanosoma brucei, UniProt Q57W26 1-119)
T1 sequence: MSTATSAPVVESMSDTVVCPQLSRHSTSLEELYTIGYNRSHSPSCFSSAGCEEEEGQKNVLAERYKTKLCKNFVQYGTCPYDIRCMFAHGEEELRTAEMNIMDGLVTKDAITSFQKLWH
Assay: EMSA; limiting probe titration; no binding; 20 mM Tris-HCl pH 8.0, 50 mM NaCl, 10 uM ZnCl2, 0.01% IGEPAL CA-630, 0.1 mg/ml tRNA, 10 ug/ml heparin (legends: 5 ug/ml or 10 mg/ml), room temperature 30 min; 100 pmol protein, 1 pmol RNA
Conditions: protein: recombinant; tags: His10 (called His-tagged)

UUUUUUUUUUUUUUUUUUUUUUU (ssRNA) [U23]
binding result: no binding
